Reference: patent US20180215825A1 (BEIGENE, published 2018)

B1: hu333-4A2-IgG1wt (antibody)
heavy: not shown
VL: DIQMTQSPSSLSASVGDRVTITCKASQDVGIVVAWYQQKPGKAPKLLIYWASIRHTGVPSRFSGSGSGTEFTLTISSLQPDDFATYYCQQYSNYPLYTFGQGTKVEIK
notes: light chain constant region (kappa) not tied to an entry for this form
B2: hu333-4B2-IgG1mc (antibody)
heavy: EVQLVESGGGLVQPGGSLRLSCAVSGFSLTSYGVHWVRQAPGKGLEWVAVIWAGGSTNYADSVKGRFTISKDTSKNTVYLQMNSLRAEDTAVYYCAKPYGTSAMDYWGQGTLVTVSSASTKGPSVFPLAPSSKSTSGGTAALGCLVKDYFPEPVTVSWNSGALTSGVHTFPAVLQSSGLYSLSSVVTVPSSSLGTQTYICNVNHKPSNTKVDKKVEPKSCDKTHTCPPCPAPPAAAPSVFLFPPKPKDTLMISRTPEVTCVVVDVSHEDPEVKFNWYVDGVEVHNAKTKPREEQYNSTYRVVSVLTVLHQDWLNGKEYKCKVSNKALAAPIEKTISKAKGQPREPQVYTLPPSRDELTKNQVSLTCLVKGFYPSDIAVEWESNGQPENNYKTTPPVLDSDGSFFLYSKLTVDKSRWQQGNVFSCSVMHEALHNHYTQKSLSLSPGK
light: DIQMTQSPSSLSASVGDRVTITCKASQDVGIVVAWYQQKPGKAPKLLIYWASIRHTGVPSRFSGSGSGTEFTLTISSLQPDDFATYYCQQYSNYPLYTFGQGTKVEIKRTVAAPSVFIFPPSDEQLKSGTASVVCLLNNFYPREAKVQWKVDNALQSGNSQESVTEQDSKDSTYSLSSTLTLSKADYEKHKVYACEVTHQGLSSPVTKSFNRGEC
B3: hu333-4A2-IgG1mc (antibody)
heavy: EVQLVESGGGLVQPGGSLRLSCAVSGFSLTSYGVHWVRQAPGKGLEWVAVIWAGGSTNYVDSVKGRFTISKDNAKNTVYLQMNSLRAEDTAVYYCAKPYGTSAMDYWGQGTLVTVSSASTKGPSVFPLAPSSKSTSGGTAALGCLVKDYFPEPVTVSWNSGALTSGVHTFPAVLQSSGLYSLSSVVTVPSSSLGTQTYICNVNHKPSNTKVDKKVEPKSCDKTHTCPPCPAPPAAAPSVFLFPPKPKDTLMISRTPEVTCVVVDVSHEDPEVKFNWYVDGVEVHNAKTKPREEQYNSTYRVVSVLTVLHQDWLNGKEYKCKVSNKALAAPIEKTISKAKGQPREPQVYTLPPSRDELTKNQVSLTCLVKGFYPSDIAVEWESNGQPENNYKTTPPVLDSDGSFFLYSKLTVDKSRWQQGNVFSCSVMHEALHNHYTQKSLSLSPGK
light: DIQMTQSPSSLSASVGDRVTITCKASQDVGIVVAWYQQKPGKAPKLLIYWASIRHTGVPSRFSGSGSGTEFTLTISSLQPDDFATYYCQQYSNYPLYTFGQGTKVEIKRTVAAPSVFIFPPSDEQLKSGTASVVCLLNNFYPREAKVQWKVDNALQSGNSQESVTEQDSKDSTYSLSSTLTLSKADYEKHKVYACEVTHQGLSSPVTKSFNRGEC
B4: hu333-4B2-IgG1mf (antibody)
heavy: EVQLVESGGGLVQPGGSLRLSCAVSGFSLTSYGVHWVRQAPGKGLEWVAVIWAGGSTNYADSVKGRFTISKDTSKNTVYLQMNSLRAEDTAVYYCAKPYGTSAMDYWGQGTLVTVSSASTKGPSVFPLAPSSKSTSGGTAALGCLVKDYFPEPVTVSWNSGALTSGVHTFPAVLQSSGLYSLSSVVTVPSSSLGTQTYICNVNHKPSNTKVDKKVEPKSCDKTHTCPPCPAPPAAGPSVFLFPPKPKDTLMISRTPEVTCVVVDVSHEDPEVKFNWYVDGVEVHNAKTKPREEQYNSTYRVVSVLTVLHQDWLNGKEYKCKVSNKALAAPIEKTISKAKGQPREPQVYTLPPSRDELTKNQVSLTCLVKGFYPSDIAVEWESNGQPENNYKTTPPVLDSDGSFFLYSKLTVDKSRWQQGNVFSCSVMHEALHNHYTQKSLSLSPGK
light: DIQMTQSPSSLSASVGDRVTITCKASQDVGIVVAWYQQKPGKAPKLLIYWASIRHTGVPSRFSGSGSGTEFTLTISSLQPDDFATYYCQQYSNYPLYTFGQGTKVEIKRTVAAPSVFIFPPSDEQLKSGTASVVCLLNNFYPREAKVQWKVDNALQSGNSQESVTEQDSKDSTYSLSSTLTLSKADYEKHKVYACEVTHQGLSSPVTKSFNRGEC

Key:
[1] = molecular target: T1, human FcγRI expressed on HEK293 cells (human, UniProt P12314 16-374); assay: FACS, monomeric mAb on FcγR-expressing HEK293 cells
T1 construct: whole, on cells; Co-expressed with FcRγ subunit
T1 sequence (P12314 16-374): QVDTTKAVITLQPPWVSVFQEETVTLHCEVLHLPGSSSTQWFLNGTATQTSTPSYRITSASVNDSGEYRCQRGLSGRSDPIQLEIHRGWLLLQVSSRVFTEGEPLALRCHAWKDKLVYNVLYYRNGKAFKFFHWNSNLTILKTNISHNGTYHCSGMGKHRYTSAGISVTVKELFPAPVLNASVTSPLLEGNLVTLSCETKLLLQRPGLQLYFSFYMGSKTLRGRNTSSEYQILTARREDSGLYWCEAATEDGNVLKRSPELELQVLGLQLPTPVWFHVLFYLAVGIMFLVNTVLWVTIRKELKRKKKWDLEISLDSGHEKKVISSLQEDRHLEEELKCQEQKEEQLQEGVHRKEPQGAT
Experimental: (§1) Bindings of humanized anti-PD-L1 in various IgG1 formats (wt, IgG1mc, IgG1mf, SEQ. NO. 27-29) to FcγRs were also determined by flow cytometry. In brief, a series of stable HEK293 transfectants expressing human FcγRs were established. These stable cell lines expressed FcγRI, FcγRIIAH131, FcγRIIAR131, FcγRIIB, FcγRIIIAF158 or FcγRIIIAV158, respectively. Multi-subunit FcγRs (i.e., FcγRI and FcγRIIIA) were co-expressed with FcRγ subunit.

[2] = molecular target: T2, human FcγRIIAH131 expressed on HEK293 cells (human, UniProt P12318 34-317); assay: as above
T2 construct: whole, on cells
T2 sequence (looked up): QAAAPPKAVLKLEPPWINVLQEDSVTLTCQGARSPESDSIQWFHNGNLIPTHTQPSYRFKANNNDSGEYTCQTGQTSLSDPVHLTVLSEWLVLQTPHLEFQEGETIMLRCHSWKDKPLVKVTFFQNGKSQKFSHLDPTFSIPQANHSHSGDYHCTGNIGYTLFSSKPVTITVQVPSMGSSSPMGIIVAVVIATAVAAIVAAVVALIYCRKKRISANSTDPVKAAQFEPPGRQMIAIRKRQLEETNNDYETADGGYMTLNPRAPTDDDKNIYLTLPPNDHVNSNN
Experimental: as §1

[3] = molecular target: T3, human FcγRIIAR131 expressed on HEK293 cells (human, UniProt P12318 34-317); assay: as above
T3 construct: whole, on cells
T3 sequence (looked up): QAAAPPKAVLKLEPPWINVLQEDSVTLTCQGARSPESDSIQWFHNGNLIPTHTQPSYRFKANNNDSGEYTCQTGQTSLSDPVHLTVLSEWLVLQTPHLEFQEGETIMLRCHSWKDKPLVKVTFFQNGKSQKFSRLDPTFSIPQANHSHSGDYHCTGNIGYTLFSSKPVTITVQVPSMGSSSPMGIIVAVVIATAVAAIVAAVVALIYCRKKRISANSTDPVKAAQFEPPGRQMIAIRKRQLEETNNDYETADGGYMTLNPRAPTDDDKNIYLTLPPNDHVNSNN
Experimental: as §1

[4] = molecular target: T4, human FcγRIIB expressed on HEK293 cells (human, UniProt P31994 43-310); assay: as above
T4 construct: whole, on cells
T4 sequence (looked up): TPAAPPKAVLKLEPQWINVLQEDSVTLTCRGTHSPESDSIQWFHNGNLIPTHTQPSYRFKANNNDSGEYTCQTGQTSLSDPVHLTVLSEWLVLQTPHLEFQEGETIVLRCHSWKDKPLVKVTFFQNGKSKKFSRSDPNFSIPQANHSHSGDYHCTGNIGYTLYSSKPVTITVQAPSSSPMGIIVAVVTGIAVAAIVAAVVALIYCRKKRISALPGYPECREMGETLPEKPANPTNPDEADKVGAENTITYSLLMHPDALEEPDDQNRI
Experimental: as §1

[5] = molecular target: T5, human FcγRIIIAF158 expressed on HEK293 cells (human, UniProt P08637 17-254); assay: as above
T5 construct: whole, on cells; Co-expressed with FcRγ subunit
T5 sequence (P08637 17-254): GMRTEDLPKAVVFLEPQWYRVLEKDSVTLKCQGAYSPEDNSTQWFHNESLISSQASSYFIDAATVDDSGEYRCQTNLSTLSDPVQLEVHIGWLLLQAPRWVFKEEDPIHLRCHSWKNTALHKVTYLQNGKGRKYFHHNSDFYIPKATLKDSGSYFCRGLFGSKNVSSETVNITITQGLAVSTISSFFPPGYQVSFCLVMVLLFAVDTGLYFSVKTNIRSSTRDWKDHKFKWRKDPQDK
Experimental: as §1

[6] = molecular target: T6, human FcγRIIIAV158 expressed on cells (human, UniProt P08637 17-254); assay: as above
T6 construct: whole, on cells; Co-expressed with FcRγ subunit; on HEK293 cells in the FACS assays, on NK92MI/CD16V cells in the ADCC assay; also called CD16 (V158 allele)
T6 sequence (P08637 17-254 F176V limits assumed): as the sequence (P08637 17-254) above, with F160V counted along it
Experimental: as §1

[7] = molecular target: T2, human FcγRIIAH131 expressed on HEK293 …; assay: FACS, 10 µg/mL mAb as immune complex with biotin-PD-L1/His and neutravidin on FcγR-expressing HEK293 cells
From the text: (§2) Such bindings are thought to be more relevant under physiological condition, as the binding strength between monomeric γFc and most of the FcγRs is very weak. Human immune system also takes advantage of this mechanism to avoid non-specific activation of FcγRs by monomeric IgG which are present at high levels in serum.

[8] = molecular target: T3, human FcγRIIAR131 expressed on HEK293 …; assay: as above
From the text: as §2

[9] = molecular target: T4, human FcγRIIB expressed on HEK293 cells; assay: as above
From the text: as §2

[10] = molecular target: T5, human FcγRIIIAF158 expressed on HEK293 …; assay: as above
From the text: as §2

[11] = molecular target: T6, human FcγRIIIAV158 expressed on cells; assay: as above
From the text: as §2

[12] = molecular target: T7, human PD-L1, full length, expressed on cells (human, UniProt Q9NZQ7 19-290); assay: cell-based or functional assay
T7 sequence (Q9NZQ7 19-290 limits assumed): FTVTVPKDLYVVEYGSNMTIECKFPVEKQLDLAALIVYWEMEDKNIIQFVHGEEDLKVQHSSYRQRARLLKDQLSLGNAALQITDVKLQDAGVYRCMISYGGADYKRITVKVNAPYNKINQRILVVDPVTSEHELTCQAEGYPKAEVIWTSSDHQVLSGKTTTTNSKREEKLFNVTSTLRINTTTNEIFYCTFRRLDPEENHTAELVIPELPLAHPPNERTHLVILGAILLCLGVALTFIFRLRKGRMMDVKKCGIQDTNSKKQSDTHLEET

[13] = molecular target: T7, human PD-L1, full length, expressed on …; assay: FACS on HEK293/PD-L1 cells
Experimental: FACS binding analysis was performed as described in previous sections.

[14] = molecular target: T7, human PD-L1, full length, expressed on …; assay: FACS competition with CD80/Fc on HEK293/PD-L1 cells
[15] = molecular target: T6, human FcγRIIIAV158 expressed on cells; assay: FACS, monomeric mAb on FcγR-expressing HEK293 cells, goat anti-human IgG F(ab')2-Alexa Fluor 488 detection
Experimental: as §1

MFI [1] [MFI]	MFI [2] [MFI]	MFI [3] [MFI]	MFI [4] [MFI]	MFI [5] [MFI]	MFI [6] [MFI]	MFI [7] [MFI]	MFI [8] [MFI]	MFI [9] [MFI]	MFI [10] [MFI]	MFI [11] [MFI]	IL-2 release in HuT78/P3Z: IC50 [12] [mg/L]	IL-2 release in HuT78/P3Z: Max inhibition [12] [%]	IL-2 release in HuT78/PD-1: EC50 [12] [mg/L]	IL-2 release in HuT78/PD-1: Top line [12] [pg/mL]	EC50 [13] [mg/L]	Top MFI [13] [MFI]	IC50 [14] [mg/L]	Max inhibition [14] [%]	binding result [15]	Binder
1170	40.5	15.1	19	29.4	91.7	599	159	539	74.2	309	–	–	–	–	–	–	–	–	–	B1
4.78	6.16	3.64	4.49	5.42	4.14	8.09	5.28	5.03	6.81	4.89	0.039	99	0.084	300	0.092	1390	0.103	100	no binding	B2
4.29	5.78	3.8	3.71	5.2	3.87	7.53	5.38	5.05	6.44	5.43	0.045	99	0.087	299	0.098	1360	0.078	100	no binding	B3
4.56	6.12	3.99	3.73	5.09	3.91	7.27	4.92	5	6.76	4.83	0.037	99	0.075	287	0.102	1340	0.118	100	no binding	B4
